Like-named read-outs stand apart in the source and are kept apart here.

Test [1] concerns the target GPIb on human platelets (human) (UniProt P07359). As to the kind of experiment: FACS on human platelets.
Test [2] deals with CCR5 (residues 1-18) derived peptide, non-sulfated. As to the kind of experiment: peptide ELISA, 0.5 µg/well scFv.
The target of test [3] is CCR5 (residues 1-18) derived peptide, sulfated at 1st tyrosine position. As to the kind of experiment: peptide ELISA, 0.5 µg/well scFv.
The target of test [4] is CCR5 (residues 1-18) derived peptide, sulfated at 2nd tyrosine position. The test is described as follows: peptide ELISA, 0.5 µg/well scFv.
The target of test [5] is CCR5 (residues 1-18) derived peptide, sulfated at 3rd tyrosine position. As to the kind of experiment: peptide ELISA, 0.5 µg/well scFv. In general terms: In an ELISA, binding on a coated surface is turned into a signal by an enzyme label.
Test [6] addresses GPIb (residues 268-285) derived peptide, non-sulfated. The test is described as follows: peptide ELISA, 0.5 µg/well scFv.
In test [7] the target is GPIb (residues 268-285) derived peptide, sulfated at 1st tyrosine position. The test is described as follows: peptide ELISA, 0.5 µg/well scFv.
Test [8] concerns the target GPIb (residues 268-285) derived peptide, sulfated at 3rd tyrosine position. As to the kind of experiment: peptide ELISA, 0.5 µg/well scFv.
Test [9] addresses PSGL-1 (residues 42-58) derived peptide, non-sulfated. As to the kind of experiment: peptide ELISA, 0.5 µg/well scFv.
For test [10], the target named is PSGL-1 (residues 42-58) derived peptide, sulfated at 1st tyrosine position. As to the kind of experiment: peptide ELISA, 0.5 µg/well scFv.
In test [11] the target is PSGL-1 (residues 42-58) derived peptide, sulfated at 2nd tyrosine position. As to the kind of experiment: peptide ELISA, 0.5 µg/well scFv.
Test [12] addresses PSGL-1 (residues 42-58) derived peptide, sulfated at 3rd tyrosine position. The test is described as follows: peptide ELISA, 0.5 µg/well scFv.
For test [13], the target named is CCR5 (residues 1-18) derived peptide, sulfated at 2nd tyrosine position. The test is described as follows: peptide ELISA, 0.5 µg/well scFv. The source holds these as a separate data set.
Test [14] addresses GPIb (residues 268-285) derived peptide, sulfated at 1st tyrosine position. As to the kind of experiment: peptide ELISA, 0.5 µg/well scFv. This is another data set of the same source.
The target of test [15] is GPIb (residues 268-285) derived peptide, sulfated at 3rd tyrosine position. As to the kind of experiment: peptide ELISA, 0.5 µg/well scFv. This is another data set of the same source.
For test [16], the target named is PSGL-1 (residues 42-58) derived peptide, sulfated at 3rd tyrosine position. The test is described as follows: peptide ELISA, 0.5 µg/well scFv. The source holds these as a separate data set.

Chain of GPIb on human platelets (human) (P07359 17-652): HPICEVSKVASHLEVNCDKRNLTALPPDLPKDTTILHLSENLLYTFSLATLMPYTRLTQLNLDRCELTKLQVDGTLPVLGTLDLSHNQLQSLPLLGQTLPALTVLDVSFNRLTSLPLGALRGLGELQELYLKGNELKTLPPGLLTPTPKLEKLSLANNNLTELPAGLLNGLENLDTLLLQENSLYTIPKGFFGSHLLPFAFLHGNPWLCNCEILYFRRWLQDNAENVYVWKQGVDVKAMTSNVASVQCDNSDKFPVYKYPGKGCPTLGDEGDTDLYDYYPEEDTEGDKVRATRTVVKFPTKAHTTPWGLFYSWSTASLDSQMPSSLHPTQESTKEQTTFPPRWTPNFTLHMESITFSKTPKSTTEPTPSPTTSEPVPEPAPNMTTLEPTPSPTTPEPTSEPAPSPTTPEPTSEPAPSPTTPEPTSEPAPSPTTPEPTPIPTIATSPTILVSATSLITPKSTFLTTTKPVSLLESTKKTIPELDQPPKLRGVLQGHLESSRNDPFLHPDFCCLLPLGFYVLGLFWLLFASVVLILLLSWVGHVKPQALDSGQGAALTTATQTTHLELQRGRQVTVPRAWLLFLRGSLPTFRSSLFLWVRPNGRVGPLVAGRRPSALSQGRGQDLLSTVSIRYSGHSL

B1: S1 scFv (scFv)
scFv: EVQLVESGGGVVRPGGSLRLSCAASGFTFDLNPKVKHMWVRQAPGKGLEWVSGINWNGGSTGYADSVKGRFTISRDNAKNSLYLQMNSLRAEDTAVYYCARLRPPFLWGQGTLVTVSRGGGGSGGGGSGGGGSSELTQDPAVSVALGQTVRITCQGDSLRSYYASWYQQKPGQAPVLVIYGKNNRPSGIPDRFSGSSSGNTASLTITGAQAEDEADYYCNSRDSSGNHVVFGGGTKLTVLGAAAEQKLISEEDLNGAA
Take B1: in test [1], the fold binding capacity relative to Y1 is 25 fold. Also, the ELISA read-out at 450 nm in [2] was determined as 0.06 OD 450 nm; in test [3], 0.07 OD 450 nm; in test [4], 0.3 OD 450 nm; in test [5] it was 0.07 OD 450 nm; in [6], 0.07 OD 450 nm; in test [7], 0.8 OD 450 nm. Also, the ELISA read-out at 450 nm in test [8] is 0.15 OD 450 nm; in [9] it was 0.07 OD 450 nm; in test [10] it was 0.1 OD 450 nm; in test [11], 0.08 OD 450 nm; in [12] it was 0.8 OD 450 nm.

B2: S11 scFv (scFv)
scFv: EVQLVESGGGVVRPGGSLRLSCAASGFTFDLNPKVKHMWVRQAPGKGLEWVSGINWNGGSTGYADSVKGRFTISRDNAKNSLYLQMNSLRAEDTAVYYCARLRYPFFWGQGTLVTVSRGGGGSGGGGSGGGGSSELTQDPAVSVALGQTVRITCQGDSLRSYYASWYQQKPGQAPVLVIYGKNNRPSGIPDRFSGSSSGNTASLTITGAQAEDEADYYCNSRDSSGNHVVFGGGTKLTVLGAAAEQKLISEEDLNGAA
For the molecule B2, the ELISA read-out at 450 nm was 0.08 OD 450 nm in test [2]; 0.1 OD 450 nm in [6]; 0.01 OD 450 nm in [9]; 0.7 OD 450 nm in [13]; 0.6 OD 450 nm in [14]; 0.3 OD 450 nm in test [15]. The ELISA read-out at 450 nm in [16] worked out at 0.7 OD 450 nm.

Values taken from US20080274100A1.
